Changes are numbered by the printed parent chain.
B1: C-E3 (protein)
CDR 1: SNAVG
CDR 2: GCSSDGKCYYNSALKS
CDR 3: GYYPVYGYDYLGTIDY
CDR 4: SGSSSNVGRNDVA
CDR 5: GTTSRPS
CDR 6: ASGDSSAINDI
modifications: VHCDR1 ME12, NS3D9; VHCDR1 S1D2, S1H6, S2C3; VHCDR1 MC5, MD12; VHCDR1 3aA6, VHCDR1 CE3; VHCDR2 NS3D9, CE3; VHCDR3 NS3D9, CE3; VLCDR1 NS3D9, CE3; VLCDR2 NS3D9, CE3; VLCDR3 NS3D9, CE3
B2: CB2: anti-tau clone, Tables 2 and 10; SEQ ID NO: 369 (protein)
scFv: QVQLQESGPSLVKPSQTLSLTCTVSGFSLSTNSVGWVRQAPGKAPEWVAGIDTDGEEGFNPVLKSRLSITRDTSKSQVSLSLSNVTSEDTAVYYCGRSYRTDGLAYGYVQAIDYWGPGLLVTISSEGKSSGASGESKVDDQSVLTQPSSVSGSPGQTVSITCSGSYIGSSGVGWFQQLPGSGLRTIIVASDGRPSGVPDRFSMSKSGNTATLTISSLQAEDEADYFCGSSDRTQYTGLFGSGTRLTVLG
modifications: CB2 amino acid sequence
B3: 3aA6: anti-tau clone, Table 8; SEQ ID NO: 418 (protein)
chain: QVRLQESGSSLVKPSQTLSLVCTVSGFPLTSNAVGWVRQAPGKAPEWLGLIDIDGDTAYNPALESRLSITRDTSKSQVSLSLSSVAIEDTAVYYCARHYDKWGYADSIDYWGPGLLVTVSSEGKSSGASGESKVDDQALLTQPSSVFGSLGQRVSITCSGSSSNVGYGDYVGWYQQVPGSAPKLLIYDATTRASGVPDRFSGSRSGNTATLTISSLQAEDEADYYCASYQNERSGVFGSGTRLTVLG
modifications: 3aA6 amino acid sequence
B4: 3aB7: anti-tau clone, Table 7; SEQ ID NO: 420 (protein)
chain: QVQLQESGPSLVKPSQTLSLTCTVSGFSLTSNGVGWVRQAPGKVPEWVGDKSSAGKTYGNPALKSRLSITRDTSKSQVSLSLSSVTTEDTAVYYCVRCRDGGVTYGYDVDYWGPGLLVTVSSEGKSSGASGESKVDDQAVLTQPSSVSKSLGQSVSITCSGSSSNVGYGDVVSWFQQFPGSAPKLLIFGTTTRASGVPDRFSGSRSGNAATLTINSLQAEDEADYYCASFDSDSGGIAGSGTRLTVLG
modifications: 3aB7 amino acid sequence
B5: CA12: anti-tau clone, Tables 2 and 10; SEQ ID NO: 372 (protein)
chain: QVQLQGSGPSLVKPSQTLSLTCTVSGFSFDSYYVGWVRQAPGKALEWLGNIYSTGRAFYNPALKSRLSITRDTSKSQVSLSVSSVTIEDTALYYCVRGSYYHGGGNGMVDFFDYWSPGLLVTVSSEGKSSGASGESKVDDQVVRTQPSSVSGSLGQRVSITCSGSSSNVGYGNYVGWFQQVPGSAPKLLIYAATSRASGVPDRFSGSRSGNTATLTIDSLQAEDEADYYCSSYQRGNTGVFGSGTRLTVLG
modifications: CA12 amino acid sequence
B6: S1G10: anti-tau clone, Table 2; SEQ ID NO: 415 (protein)
scFv: QVQLQESGPSLVKPSQTLSLTCTVSGFSLTSNSVGWVRQAPGKAPEWVAGIDTDGEEGYNPALNSRLSITRDTSKSQVSLSLSSVTSEDTAVYYCGRSYRADGLAYGYVQAIDYWGPGLLVTVSSEGKSSGASGESKVDDQAVLTQPSSMSGSLGQRVSITCSGSFIGISSVGWFQQLPGSGLRTIIVASDGRPSGVPDRFSMSKSGNTATLTISSLQAEDEADYFCGSSDRTQYTGVFGSGTRLTVLG
modifications: S1G10 amino acid sequence
B7: C-A9 (protein)
scFv: B6 scFv with A101S, S148A, M150V
modifications: left off: small tags and cut ends
B8: C-B3 (protein)
scFv: QVQLQESGPSLVKPSQTLSLTCTVSGFSLSSVAVNWVRQAPGKVPEWLGGIISNGGTGYNPALKSRLSITRDTSKSQVSLALTHVTTEDTAVYYCGRGVEWEGSMDYLGPGLLVTVSSEGKSSGSGSETKVDDQSVLTQPSSVSGFLGQRVTITCSGSSSNVGAGSYVGWYQQVPGSGLRILIYGATKRASGLPDRFSGSRSGNTATLTISSLQAEDEADYYCVSYQTDFTLVFGSGTRLTVLG
modifications: left off: small tags and cut ends
B9: 3bF4: anti-tau clone, Table 7; SEQ ID NO: 421 (protein)
chain: QVQLQESGPSLVKPSQTLSLTCTVSGFSLSSNGVGWVRQAPGKVPEWLGDISSVGKKYANPALKSRLSFTRDTSKSQVSLSLSSVTTEDTAVYYCVKCRDGGVTYGYDIDYWGPGLLVTVSSEGKSSGASGESKVDDQAVLTQPSSVSKSTGQTVSITCSGSSSNVGLRNYVTWFQQVPGSAPKLLIYGATSRASGIPDRFSGSRSGNTATLIISSLQAEDEADYYCASADTNDGGVFGSGTRLTVLG
modifications: 3bF4 amino acid sequence
B10: 3aD3: N-terminal anti-tau clone, Table 6; SEQ ID NO: 422 (protein)
chain: QVQLQESGPSLVKPSQTLSLTCTVSGFSLTSNGVGWVRRAPGKVPEWVGDISSGGKVYGHPALKSRLSITRDTSKSQVSLSVSSVTSEDTAVYYCVRCRDGGVSYGYDSDYWGPGLLVTVSSEGKSSGASGESKVDDQAVVTQPSSVSKSLGQSVSITCSGSSSNVGYGDYVGWFQQVPGSAPKLLIYGVTERASGVPDRFSGSRSGNTATLTISSIQAEDEADYYCASYDDSSGGIFGSGTRLTVLG
modifications: 3aD3 amino acid sequence
B11: S-1D12 (protein)
CDR 1: NNAVG
CDR 2: GCSSDGTCYYNSALKS
CDR 3: GHYSIYGYDYLGTIDY
CDR 4: SGSSSNVGGGNSVG
CDR 5: DTNSRPS
CDR 6: VTGDSTTHDDL
modifications: VHCDR1 S1D12, S2C1; VHCDR2 S1D12, S2C1; VHCDR3 S1D12; VLCDR1 S1D12, ME12; VLCDR2 S1D12; VLCDR3 S1D12

Columns and labels:
[1] = tested on: hT40, dGA, dGAE and truncated tau fragments; assay: Binding ELISA / epitope mapping of anti-tau scAbs with truncated tau proteins and 13mer peptides; parameters: species or system human; conditions: for Binding regions on hT40: Table 33, core binding scAbs tested in epitope occlusion assays; for Tau proteins/fragments with positive scAb reactivity: binding ELISA; for Shortest region bound on hT40: incl. 13mer peptides; for Short epitope on hT40: Table 18, '3a' & '3b' series scAbs; for Epitope: residue numbers of SEQ ID NO: 1 (hT40), CDR Tables 1-11
Procedure: A series of binding ELISA was performed using various truncated versions of the tau protein and 13mer peptide libraries spanning the entire hT40 molecule for mapping the epitopes of anti-tau scAbs (Full list of protein antigens used is given in Table 14). In general, ELISA plates were coated with 1 μg/ml hT40 or dGA or dGAE or other truncated versions of the protein and in the case of biotinylated peptides, plates were coated with 5 μg/ml Streptavidin followed by 1 μg/ml biotinylated peptide. The plates were blocked with 2% MPBS and scAb samples added at desired starting concentrations and double diluted across the plate. Binding was detected using anti-Human C Kappa HRP conjugated secondary antibody and the resulting immunoreaction was developed and absorbance values measured as described above.
Selected E specific scAbs and their specific binding to dGAE is shown below (FIG. 8A-E).
Similarly, dGA binding ‘NS’, ‘S’ and ‘M’ group scAbs were subjected to further antigen binding ELISA using shorter tau proteins and biotinylated 13mer peptides as shown below (FIG. 10A-F) and (FIG. 11A-R).

[2] = target: T1, hT40 (T441, SEQ ID NO: 1) (Homo sapiens, UniProt P10636); assay: Biacore X100 SPR kinetics of scAbs for hT40; type: binding; conditions: Table 25; '3a' and '3b' scAbs, hT40
T1 construct: Full length tau (hT40)
T1 sequence (P10636 1-441 isoform P10636-8): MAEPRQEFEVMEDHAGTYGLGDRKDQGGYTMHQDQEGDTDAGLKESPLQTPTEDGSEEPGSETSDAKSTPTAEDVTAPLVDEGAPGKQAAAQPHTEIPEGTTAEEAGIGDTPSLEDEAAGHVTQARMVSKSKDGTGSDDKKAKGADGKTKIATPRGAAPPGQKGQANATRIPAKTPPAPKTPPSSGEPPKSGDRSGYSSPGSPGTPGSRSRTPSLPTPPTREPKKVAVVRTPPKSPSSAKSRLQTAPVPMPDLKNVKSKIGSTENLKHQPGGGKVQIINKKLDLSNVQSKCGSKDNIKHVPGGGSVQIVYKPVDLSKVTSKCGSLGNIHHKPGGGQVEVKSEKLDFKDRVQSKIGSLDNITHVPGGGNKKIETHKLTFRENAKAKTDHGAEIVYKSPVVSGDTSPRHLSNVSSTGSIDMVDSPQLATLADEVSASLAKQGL
Procedure: Surface plasmon resonance (SPR) is widely regarded as the gold standard for real time measurement of protein-protein interactions such as antibody binding. All SPR experiments were carried out using a Biacore X100 machine and HBS EP+ running buffer (GE Healthcare). A ‘capture’ method was followed for affinity measurements, where an anti-human constant kappa chain (HuCk) antibody was conjugated to the surface of a CM5 sensor chip using an amine coupling kit and scAb molecules were immobilised via their HuCk domain. Amine coupling is a very common approach for immobilising the ligand to the chip surface. […] The capture antibody was diluted 1/100 in 10 mM Sodium acetate buffer pH 5.0 and passed over the activated chip surface for a period of at least 420 s. Final ligand immobilisation levels over 12,000 RU were deemed to be satisfactory.
Following immobilisation, the level of each scAb to be captured was identified using the standard SPR equation with a theoretical RMax of 100 RU. Analyte MW refers to the molecular weight of hT40 or dGA/dGAE molecules, while ligand MW refers to the molecular weight of the scAbs tested. RL is the desired capture level and S refers to the stoichiometric ratio:
The scAb to be tested was added only to flow cell 2 so that flow cell 1 could act as a control to subtract any interaction with the analyte and the chip surface. Both single and multi-cycle runs were utilised using wizards developed in the Biacore X100 control software which are both accepted methods of kinetic analysis (Karlsson, R., et al. Analyzing a kinetic titration series using affinity biosensors (2006) Analytical Biochemistry 349:136-47). The multi-cycle protocol was as follows-Three start-up cycles composed of an initial capture, to the desired level, of the scAb to be tested was performed followed by a 30 s injection of glycine buffer pH 2.0 after each cycle to regenerate the chip surface. […] Following three start-up cycles increasing concentrations (0.15625 nM-100 nM) of the target to be tested were added to the chip surface after the desired scAb capture. The target was added for a 120 s association period and 420 s dissociation period followed by another regeneration, 30 s injection of glycine buffer pH 2.0 in between each cycle.
The single cycle kinetics protocol was similar and utilised the same level of scAb capture. Three start-up cycles were used followed by 5 increasing concentrations of the analyte (6.25 nM-100 nM) for an association period of 120 s followed by a dissociation period of 420 s for each concentration. In single cycle kinetics the regeneration step was performed only after the final analyte concentration was added. Binding responses were analysed in Biacore X100 evaluation software and data fitted to a 1:1 binding model to obtain kinetic and affinity characterisation.

Row | Molecule | Binding regions on hT40 [1] | ka [2] [M⁻¹ s⁻¹] | kd [2] [s⁻¹] | Short epitope on hT40 [1] | Epitope [1] | other results
1 | B1 | 297-356 | – | – | – | – | –
2 | B2 | – | – | – | – | – | Tau proteins/fragments with positive scAb reactivity ([1]; Table 17, 'C' group scAbs): hT40, 348-441; Shortest region bound on hT40 ([1]; Table 17, 'C' group scAbs): 359-391
3 | B3 | – | 19000 | 0.0188 | 147-157 | 147-157 | –
4 | B4 | – | 207200 | 0.01435 | 49-111 | 49-111 | –
5 | B5 | – | – | – | – | – | Tau proteins/fragments with positive scAb reactivity ([1]; Table 17, 'C' group scAbs): hT40, 297-390 (dGA); Shortest region bound on hT40 ([1]; Table 17, 'C' group scAbs): 367-379
6 | B6 | – | – | – | – | – | Tau proteins/fragments with positive scAb reactivity ([1]; Table 16, NS, S and M clones): hT40, 297-390 (dGA), 297-391 (dGAE), 369-390, 369-391; Shortest region bound on hT40 ([1]; Table 16, NS, S and M clones): 367-379; Detection scAb (Epitope) ([1]; Table 28 (LoD table), residues of hT40): S1G10 (367-379)
7 | B7 | 367-379 | – | – | – | – | –
8 | B8 | 360-390 | – | – | – | – | –
9 | B9 | – | 109300 | 0.01532 | 49-111 | 49-111 | –
10 | B10 | – | 544400 | 0.01038 | 1-49 | 1-49 | –
11 | B11 | 337-355 | – | – | – | – | –
